Measurements: patent publication US20240209100A1 (DIAGONAL THERAPEUTICS, published 2024)

T1: IL-18 receptor (IL-18Rα/IL-18Rβ) overexpressed on HEK-Blue IL-18 cells (Homo sapiens (Human), UniProt Q13478 19-541; O95256 20-599)
T1 sequence 1: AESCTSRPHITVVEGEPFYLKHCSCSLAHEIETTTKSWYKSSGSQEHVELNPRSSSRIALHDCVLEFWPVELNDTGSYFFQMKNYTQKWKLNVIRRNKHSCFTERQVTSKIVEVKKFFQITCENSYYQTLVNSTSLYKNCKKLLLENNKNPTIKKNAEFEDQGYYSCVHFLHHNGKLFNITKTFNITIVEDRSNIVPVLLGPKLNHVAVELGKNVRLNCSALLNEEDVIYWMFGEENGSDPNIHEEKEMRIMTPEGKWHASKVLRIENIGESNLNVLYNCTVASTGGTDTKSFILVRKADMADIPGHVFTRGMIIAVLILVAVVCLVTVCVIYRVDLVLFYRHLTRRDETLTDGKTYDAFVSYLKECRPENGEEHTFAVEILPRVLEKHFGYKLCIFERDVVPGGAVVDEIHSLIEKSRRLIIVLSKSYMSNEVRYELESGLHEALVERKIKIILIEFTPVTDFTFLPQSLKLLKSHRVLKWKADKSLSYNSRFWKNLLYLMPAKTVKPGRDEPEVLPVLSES
T1 sequence 2: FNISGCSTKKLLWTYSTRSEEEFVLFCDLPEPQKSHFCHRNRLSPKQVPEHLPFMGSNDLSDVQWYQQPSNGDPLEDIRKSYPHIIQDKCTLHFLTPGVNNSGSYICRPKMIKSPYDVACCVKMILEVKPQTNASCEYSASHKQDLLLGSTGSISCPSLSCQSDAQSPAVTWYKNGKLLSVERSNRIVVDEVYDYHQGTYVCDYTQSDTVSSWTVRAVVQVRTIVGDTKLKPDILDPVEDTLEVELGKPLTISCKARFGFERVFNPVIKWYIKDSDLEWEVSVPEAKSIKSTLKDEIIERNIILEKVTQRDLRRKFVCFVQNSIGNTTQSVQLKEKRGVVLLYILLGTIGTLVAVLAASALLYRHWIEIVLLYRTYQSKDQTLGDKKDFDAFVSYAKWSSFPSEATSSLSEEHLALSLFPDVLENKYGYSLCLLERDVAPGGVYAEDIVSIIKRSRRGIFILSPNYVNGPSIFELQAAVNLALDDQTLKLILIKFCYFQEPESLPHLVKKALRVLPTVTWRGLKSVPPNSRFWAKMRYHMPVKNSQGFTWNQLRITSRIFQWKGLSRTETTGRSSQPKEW

B1: DGL220 (bispecific antibody)
heavy 1: QVQLVESGGGLVQAGGSLRLSCAASGRTFSKHAMGWFRQAPGKEREFVAAIDWSGGSTYYADSVKGRFTISRDNAKNTVYLQMDSLKPEDTAVYYCAADSYTDYAQLWLPELESEYDYWGQGTLVTVSSPLAPCPPCPAPEAAGAPSVFLFPPKPKDTLMISRTPEVTCVVVDVSHEDPEVKFNWYVDGVEVHNAKTKPREEQYNSTYRVVSVLTVLHQDWLNGKEYKCKVSNKALPAPIEKTISKAKGQPREPQVCTLPPSRDELTKNQVSLSCAVKGFYPSDIAVEWESNGQPENNYKTTPPVLDSDGSFFLVSKLTVDKSRWQQGNVFSCSVMHEALHNHYTQKSLSLSPGWSHPQFEK
heavy 2: not shown
B2: DGL211 (bispecific antibody)
heavy 1: QVQLVESGGGLVQAGGSLRLSCAASGRTFSKHAMGWFRQAPGKEREFVAAIDWSGGSTYYADSVKGRFTISRDNAKNTVYLQMDSLKPEDTAVYYCAADSYTDYAQLWLPELESEYDYWGQGTLVTVSSEKSYGPPCPPCPAPEAAGAPSVFLFPPKPKDTLMISRTPEVTCVVVDVSHEDPEVKFNWYVDGVEVHNAKTKPREEQYNSTYRVVSVLTVLHQDWLNGKEYKCKVSNKALPAPIEKTISKAKGQPREPQVCTLPPSRDELTKNQVSLSCAVKGFYPSDIAVEWESNGQPENNYKTTPPVLDSDGSFFLVSKLTVDKSRWQQGNVFSCSVMHEALHNHYTQKSLSLSPGWSHPQFEK
heavy 2: QLQLVESGGGLVQAGGSLRLSCAASRSITFSHNVMGWYRQAPGKQRELVASIGSGGSTNYVDSVKGRATISRDNAKKTVYLQMNSLKPEDTAVYYCGVVVGVYRGSLGQGTLVTVSSEKSYGPPCPPCPAPEAAGAPSVFLFPPKPKDTLMISRTPEVTCVVVDVSHEDPEVKFNWYVDGVEVHNAKTKPREEQYNSTYRVVSVLTVLHQDWLNGKEYKCKVSNKALPAPIEKTISKAKGQPREPQVYTLPPCRDELTKNQVSLWCLVKGFYPSDIAVEWESNGQPENNYKTTPPVLDSDGSFFLYSKLTVDKSRWQQGNVFSCSVMHEALHNHYTQKSLSLSPGEPEA
B3: DGL217 (bispecific antibody)
heavy 1: QVQLVESGGGLVQAGGSLRLSCAASGRTFSKHAMGWFRQAPGKEREFVAAIDWSGGSTYYADSVKGRFTISRDNAKNTVYLQMDSLKPEDTAVYYCAADSYTDYAQLWLPELESEYDYWGQGTLVTVSSDKTHTCPPCPAPEAAGAPSVFLFPPKPKDTLMISRTPEVTCVVVDVSHEDPEVKFNWYVDGVEVHNAKTKPREEQYNSTYRVVSVLTVLHQDWLNGKEYKCKVSNKALPAPIEKTISKAKGQPREPQVCTLPPSRDELTKNQVSLSCAVKGFYPSDIAVEWESNGQPENNYKTTPPVLDSDGSFFLVSKLTVDKSRWQQGNVFSCSVMHEALHNHYTQKSLSLSPGWSHPQFEK
heavy 2: B2 heavy 2
B4: DGL218 (bispecific antibody)
heavy 1: QVQLVESGGGLVQAGGSLRLSCAASGRTFSKHAMGWFRQAPGKEREFVAAIDWSGGSTYYADSVKGRFTISRDNAKNTVYLQMDSLKPEDTAVYYCAADSYTDYAQLWLPELESEYDYWGQGTLVTVSSCPPCPAPEAAGAPSVFLFPPKPKDTLMISRTPEVTCVVVDVSHEDPEVKFNWYVDGVEVHNAKTKPREEQYNSTYRVVSVLTVLHQDWLNGKEYKCKVSNKALPAPIEKTISKAKGQPREPQVCTLPPSRDELTKNQVSLSCAVKGFYPSDIAVEWESNGQPENNYKTTPPVLDSDGSFFLVSKLTVDKSRWQQGNVFSCSVMHEALHNHYTQKSLSLSPGWSHPQFEK
heavy 2: not shown
B5: DGL221 (bispecific antibody)
heavy 1: QVQLVESGGGLVQAGGSLRLSCAASGRTFSKHAMGWFRQAPGKEREFVAAIDWSGGSTYYADSVKGRFTISRDNAKNTVYLQMDSLKPEDTAVYYCAADSYTDYAQLWLPELESEYDYWGQGTLVTVSSGGGGSGGGGSGGGGSGGGGSCPPCPAPEAAGAPSVFLFPPKPKDTLMISRTPEVTCVVVDVSHEDPEVKFNWYVDGVEVHNAKTKPREEQYNSTYRVVSVLTVLHQDWLNGKEYKCKVSNKALPAPIEKTISKAKGQPREPQVCTLPPSRDELTKNQVSLSCAVKGFYPSDIAVEWESNGQPENNYKTTPPVLDSDGSFFLVSKLTVDKSRWQQGNVFSCSVMHEALHNHYTQKSLSLSPGWSHPQFEK
heavy 2: not shown
B6: DGL212 (bispecific antibody)
heavy 1: B3 heavy 1
heavy 2: not shown
B7: DGL215 (bispecific antibody)
heavy 1: B3 heavy 1
heavy 2: QLQLVESGGGLVQAGGSLRLSCAASRSITFSHNVMGWYRQAPGKQRELVASIGSGGSTNYVDSVKGRATISRDNAKKTVYLQMNSLKPEDTAVYYCGVVVGVYRGSLGQGTLVTVSSPLAPCPPCPAPEAAGAPSVFLFPPKPKDTLMISRTPEVTCVVVDVSHEDPEVKFNWYVDGVEVHNAKTKPREEQYNSTYRVVSVLTVLHQDWLNGKEYKCKVSNKALPAPIEKTISKAKGQPREPQVYTLPPCRDELTKNQVSLWCLVKGFYPSDIAVEWESNGQPENNYKTTPPVLDSDGSFFLYSKLTVDKSRWQQGNVFSCSVMHEALHNHYTQKSLSLSPGEPEA
B8: DGL213 (bispecific antibody)
heavy 1: B3 heavy 1
heavy 2: QLQLVESGGGLVQAGGSLRLSCAASRSITFSHNVMGWYRQAPGKQRELVASIGSGGSTNYVDSVKGRATISRDNAKKTVYLQMNSLKPEDTAVYYCGVVVGVYRGSLGQGTLVTVSSCPPCPAPEAAGAPSVFLFPPKPKDTLMISRTPEVTCVVVDVSHEDPEVKFNWYVDGVEVHNAKTKPREEQYNSTYRVVSVLTVLHQDWLNGKEYKCKVSNKALPAPIEKTISKAKGQPREPQVYTLPPCRDELTKNQVSLWCLVKGFYPSDIAVEWESNGQPENNYKTTPPVLDSDGSFFLYSKLTVDKSRWQQGNVFSCSVMHEALHNHYTQKSLSLSPGEPEA
B9: DGL216 (bispecific antibody)
heavy 1: B3 heavy 1
heavy 2: QLQLVESGGGLVQAGGSLRLSCAASRSITFSHNVMGWYRQAPGKQRELVASIGSGGSTNYVDSVKGRATISRDNAKKTVYLQMNSLKPEDTAVYYCGVVVGVYRGSLGQGTLVTVSSGGGGSGGGGSGGGGSGGGGSCPPCPAPEAAGAPSVFLFPPKPKDTLMISRTPEVTCVVVDVSHEDPEVKFNWYVDGVEVHNAKTKPREEQYNSTYRVVSVLTVLHQDWLNGKEYKCKVSNKALPAPIEKTISKAKGQPREPQVYTLPPCRDELTKNQVSLWCLVKGFYPSDIAVEWESNGQPENNYKTTPPVLDSDGSFFLYSKLTVDKSRWQQGNVFSCSVMHEALHNHYTQKSLSLSPGEPEA
B10: DGL214 (bispecific antibody)
heavy 1: B3 heavy 1
heavy 2: not shown
B11: DGL219 (bispecific antibody)
heavy 1: QVQLVESGGGLVQAGGSLRLSCAASGRTFSKHAMGWFRQAPGKEREFVAAIDWSGGSTYYADSVKGRFTISRDNAKNTVYLQMDSLKPEDTAVYYCAADSYTDYAQLWLPELESEYDYWGQGTLVTVSSPLAPDKTHTCPPCPAPEAAGAPSVFLFPPKPKDTLMISRTPEVTCVVVDVSHEDPEVKFNWYVDGVEVHNAKTKPREEQYNSTYRVVSVLTVLHQDWLNGKEYKCKVSNKALPAPIEKTISKAKGQPREPQVCTLPPSRDELTKNQVSLSCAVKGFYPSDIAVEWESNGQPENNYKTTPPVLDSDGSFFLVSKLTVDKSRWQQGNVFSCSVMHEALHNHYTQKSLSLSPGWSHPQFEK
heavy 2: not shown

biological target: T1, IL-18 receptor (IL-18Rα/IL-18Rβ) …; assay: cell-based or functional assay

HEK-Blue IL-18: Abs 405 at 100 nM	HEK-Blue IL-18: Fold over Background	Binder
1.5 Abs	6.6 fold	B1
1.5 Abs	6.7 fold	B2
1.3 Abs	5.6 fold	B3
1.3 Abs	5.5 fold	B4
0.6 Abs	2.4 fold	B5
1.4 Abs	6.2 fold	B6
1.4 Abs	6.1 fold	B7
1.5 Abs	6.4 fold	B8
0.8 Abs	3.4 fold	B9
1.1 Abs	4.7 fold	B10
1 Abs	4.4 fold	B11
